The values below come from a protein production outcome set (Wang et al. 2014).

This data set is described as follows: label from the status in PepcDB records.

As for “MRVVVISSFVSVSLQLSFLLLLASAIRSSSSPPNDPFLGISPQDEKYYKSSSEIKCKDGSKKFTKAQLNDDFCDCSDGTDEPGTSACPTGKFYCRNAGHSPVILFSSRVNDGICDCCDGSDEYDGHVSCQNTCWEAGKAARENLKKKIETYNQGLVIRRQEIEQAKVGLEKDAAELKKLKSEQKILKGLVDQLKDRKEQIEKVEEKERLQKEKEEKEKKEAELAAQQGKGDAEEKTDDSEKVEESSHDEGTPAVSQHDETTHHDEIGNYKDYPSDEEPAAEGEPTSILDEATHTNPADEHVVERKEESTSSEDSSSPTDESQNDGSAEKEESDEVKKVEDFVTEKKEELSKEELGRLVASRWTGEKSDKPTEADDIPKADDQENHEHTPITAHEADEDDGFVSDGDEDTSDDGKYSDHEPEDDSYEEEYRHDSSSSYKSDADDDVDFSETTSNPTWLEKIQKTVKNILLAVNLFQTTPVDKSEADRVRKEYDESSSKLNKIQSRISSLEKKLKQDFGPEKEFYSFHGRCFESKQGKYTYKVCAYKEATQEEGYSKTRLGEWDKFENSYQFMSYTNGEKCWNGPDRSLKVKLRCGLKNELMDVDEPSRCEYAAILSTPARCLEDKLKELQQKLEKLMNQDKPQNHDEL”, the protein production entry is “failed”.
To “MRWNICVVGAGKIGQMIAALLKTSSNYSVTVADHDLAALAVLNRMGVATKQVDAKDEAGLAKALGGFDAVISAAPFFLTPIIAKAAKAAGAHYFDLTEDVAATNAVRALAEDSQTAFMPQCGLAPGFVGIAGAALAAEFDEIDSLHMRVGALPLYPTNALKYNLTWSTDG” belongs “failed”.
For the sequence “MRYGFMKVAAAVPFVKVADCEYNIERIDRMVHEADAKGVEIMTFPELSITGYSCGDLFFQPFLQERANEALCRLVEQTANTTVMVIVGMPLRVEEKLFNSAVVFQQGKILGAIPKTYLPNYREFQEARWFSPAHTLQYSTISIGQHSVPIGRNLIFKCGTVGVGIEICEDMWTPFTPGTRLCLYGAEVIFNLSSSNENAGKHSYLRSLISGLSSQGICAYVYASSGYGESSTDIVFTGKAFIAEAGEIVEEMERFRYEERMIISDIDVSRIQTERLINSSFKA”, the protein production entry is “failed”.
For the sequence “MRYSIYLCILFVLSILSCNSKQEDRVIESFYVRKDDLGRNVSISVNPKRILSLTPSITELVYTFSDTSRLIGRSVWCDYPAGVKVIPAVNNYPLDIEGVVRLKPDLILVKQGMISVQELDKLEQLHLAVYVQKYDLLNEIYASTKTLVEITKGDSATYKHWLTSMQSDTMHTSVQHAKTCLAVTSVSPIYVFGKTTFVSELIEQAGGKNCVETIQSAYPTVDVEYILRANPDVFIFNSTDQQKLFFETYPLLKQCKGYITNQLFVIDDSIMSRPGIRLPILKDSLVSILSK”, the protein production entry was “failed”.
To “MSAALPSIQLPVDYNNLFNEITDFLVTFKQDTLSSDATRNENEDENLDAENIEQHLLEKGPKYMAMLQKVANRELNSVIIDLDDILQYQNEKFLQGTQADDLVSAIQQNANHFTELFCRAIDNNMPLPTKEIDYKDDVLDVILNQRRLRNERMLSDRTNEIRSENLMDTTMDPPSSMNDALREVVEDETELFPPNLTRRYFLYFKPLSQNCARRYRKKAISSKPLSVRQIKGDFLGQLITVRGIITRVSDVKPAVEVIAYTCDQCGYEVFQEVNSRTFTPLSECTSEECSQNQTKGQLFMSTRASKFSAFQECKIQELSQQVPVGHIPRSLNIHVNGTLVRSLSPGDIVDVTGIFLPAPYTGFKALKAGLLTETYLEAQFVRQHKKKFASFSLTSDVEERVMELITSGDVYNRLAKSIAPEIYGNLDVKKALLLLLVGGVDKRVGDGMKIRGDINVCLMGDPGVAKSQLLKAICKISPRGVYTTGKGSSGVGLTAAVMKDPVTDEMILEGGALVLADNGICCIDEFDKMDESDRTAIHEVMEQQTISISKAVINTNPGARTSILAAANPLYGRINPRLSPLDNINLPAALLSRFDILFLMLDIPSRDDDEKLAEHVTYVHMHNKQPDLDFTPVEPSKMREYIAYAKTKRPVMSEAVNDYVVQAYIRLRQDSKREMDSKFSFGQATPRTLLGIIRLSQALAKLRLADMVDIDDVEEALRLVRVSKESLYQETNKSKEDESPTTKIFTIIKKMLQETGKNTLSYENIVKTVRLRGFTMLQLSNCIQEYSYLNVWHLINEGNTLKFVDDGTMDTDQEDSLVSTPKLAPQTTASANVSAQDSDIDLQDA” belongs “failed”.
The entry for “MSADLKQSRLADWRQRALAFEREVGKAVIGLERPIRHILIAVFARGHVMLEGDVGVGKTTLLRAVARCLGGAYERVEGTIDLMPNDLVYHTYINELGKPQVEPGPVLKHGEELSVFFFNEVNRARPQVHSLLLRIMAEHAVSAFNREHFFPYLQVFADRNRVEKEETFEIPSAARDRFMMELHVETPADPALRRALMFDPKFHDVDRLLDTLTPGILPYREIPQIAPVIQQSVTASETLQQYALDLWEATRRPADYGVKLEGIDMDRLILAGASARGVSMMMRAARVAAWLDGRDYLVPEDIHDVFRETIGHRVFFNPVYELRRTALIDELLHAIRQKVAAPLEHHHHHH” is “not failed”.
“MSAFQAFVVNKTETEFTAGVQTISMDDLPEGDVLVRVHYSSVNYKDGLASIPDGKIVKTYPFVPGIDLAGVVVSSQHPRFREGDEVIATGYEIGVTHFGGYSEYARLHGEWLVPLPKGLTLKEAMAIGTAGFTAALSIHRLEEHGLTPERGPVLVTGATGGVGSLAVSMLAKRGYTVEASTGKAAEHDYLRVLGAKEVLAREDVMAERIRPLDKQRWAAAVDPVGGRTLATVLSRMRYGGAVAVSGLTGGAEVPTTVHPFILRGVSLLGIDSVYCPMDLRLRIWERLAGDLKPDLERIAQEISLAELPQALKRILRGELRGRTVVRLA”: the protein production result is on record as “not failed”.
To “MSAHPLAQLETFKHTSKQWNQLREAANMSNRMEHILQAMPSGVVILNGDGIVTDANPVAVELLEQSLCGARWIDVIHTAFAPQDDDGHEVSLRNGRRVKLAITPLTPEPGQLIVLTDLTETRLLQKNLSHLQRLSALGKMVATLAHQVRTPLSAALLYAANLASPKLSDSAKVKFQQKLVDRLNELERQVNDMLLMAKGRQDELGELINLNDVIENVVANCEPIVAKHGAELTVTNASNGLMLANVNALSSAVNNLVMNSLEAGATQIQLVANEIDDQLHLNVVDNGKGLDAKMQQRVLEPFFTTKAQGTGLGLAVVQSVVRNHGGQLQLNCMPNKGCTVSLTFPQAKSATVLPLEKSHV” belongs “failed”; to “MSAIDCIITAAGLSSRMGQWKMMLPWEQGTILDTSIKNALQFCSRIILVTGYRGNELHERYANQSNITIIHNPDYAQGLLTSVKAAVPAVQTEHCFLTHGDMPTLTIDIFRKIWSLRNDGAILPLHNGIPGHPILVSKPCLMQAIQRPNVTNMRQALLMGDHYSVEIENAEIILDIDTPDDFITAKERYTEILEHHHHHH”, “not failed”.
To “MSAKIVTVFNQKGGCGKTTVSMHIAGTLGVRGSKTLLVDMDEQGTATRWAAQAPEEKPFPASVIGLAPSGGAMHREVRKFIADYDYIVVDCPPAVHSPASSSALLISDIAIIPVVPSPPDLWAAVAAKALAQQAQVTNETLRVRVLANMVQRRVSLAKQAIEILGDDGDIPLMESMIGSRSAFRECQAIGATVHGVPGAREAINEVDIMVNEVLQLLREGQA” belongs “failed”; to “MSAKSPTPQPPYEIPSFRKRRLITTGLLTITTLWFIYFYVDLVSATTLLTLPVIIAAPLIMVYIWYHEFTYYARVRKNNKLYKALYGHLQNHQHPENTDTPPM”, “failed”; to “MSALDCPAGTVLFRAGQDCPGFLRLDEGSIRVTLTAANGREVVLYRVRPGDVCLQTFACLTEGRSYSAEGVAETRVRGHLMSHADFRTALARDEAFRTEVMQAVARRFADFEHLVEDVALTGFDTRLARVLLRLAKGDTVAATHEALAAETASGRAFVSRRLAEFARQGLVELARGRVTLCDRSGLERIAAEER”, “not failed”.
For “MSALFLMKTLGLFIATAIAEIVGCYLPYLWLKEGHSVWLLIPAAVSLALFAYLLTLHPAESGRVYAAYGGIYVLTAIVWLRIVDKSPLSNFDLIGTAFVLTGMGILVYGWR”, the protein production result is given as “failed”.
To “MSALLGILGVVLDARFGEPQGWHPLVAFGRLADRLERRFNRSRLAGEADPGVGWRSHGVTAWVLAVLPLTLLAWALAELPYLGWLVQALALYAALGLRSLGEHAEPVALALRAGDLDEARRRVGYLVSRDTRELDQAGVARAATESVLENGSDAVYAALFWFAVAGAPGVVLYRLSNTLDAMWGYRNARFERFGWAAAKIDDILNYLPARLVALTYALLGDTRQALRCWREQAPQWDSPNAGPVMAAGAGALGVFLGGAAIYHGELHQRPLLGSGPQPQGRDIYRALALVRQGVLLWLLVLAGLWAMGWLHA” belongs “failed”; to “MSALPSYTQNGQTITFAFAQPLQLTIVTPEIIRVFINRGEQGESYAIEGHKIQATDFTIESAGDHYIIRTSALTIHLDSERHLDTFDKDGNALITDYRGERIHLKGVDKVHERLVEAEGHSVTKAPTKSDQGYYEIIKSLAPDEYLYGLGDKTGYLNKRGFAYDNWNVDNPAPQLEILPNIYKSIPVMLGLKNGHPYGIFFDNTYQSHLDMGKESNHYYFYSAVQGNLDYYIIGGTTLKDIVTNYTYLTGRTPLPQKWTLGYQQSRWGYSASQEEVQAIADNLAKYDLPCDAIHFDVDYMDGYRVFTWDKDKYQGNPKKFITKLNQQGLKVIPIIDPGVKQDSDYHIYAEGLKKGYFVKSADGDVYINKVWPGNAAFPDFGRPEVRQWWANNGKFLTDLGVAGIWIDMNEPATFEGPIPDDVVFNDQDTPSTHKKMHNVYGHNMAKATYAGLKEQTGNRPFVITRAAYAGTQKYSTVWTGDNRSMWPHIQMMIPQLCNLGLSGFSFTGTDIGGFASDTTSELLTRWIEGAIFSPLLRNHAALGTRQQEPWAFGEPTLNIYRKYLKLRYRLIPYLYDLFAKETKTGLPIMRPVVLNYDQDPRVRDLNDEYMVGDDILVAPVVQKSQFKRLVYLPAGNWVDFWNGAEYAGNQDIVVDTPLDKLPLFVKQNTILPWGPAVSHISDEPLKAMTFRVFGTQGTYQHYQDNGRDFKYQSGEWNNYTITVDHNKVNVQLTHHGYQPVYQQITVELSDHVVKLTYDNDSSCYRE”, “failed”; to “MSANPDRFLGRAEVYAAARPDYPPALGNELARRGLLRGQVADLGAGTGLFTRLLLQRGAQVIAVEPNPEMREQLLRALAAEVTRGQLRVQSGTAEATGLPGSSVDLLTAAQAAHWFDPAPTRREFQRVLRPGGQVLFVWNDWREADGPFNEAYGAVVAHFSPEEGRVRTRVPRDELAQWFSGAPEELSFDHPLTFTRERLHALAGSVSYLPAPGSERFPELLARLDQAFDRQARQDTVELTYRTFAFLGRV”, “failed”.
The entry for “MSAPAPRSPAGGHEARATARALTLLAIGAGFGFLWLARDLLVPTALGVTLALSVHPVVAALQRRRVSRTVASVAGTLLAVAVLVGIGYVLWGRIAAFADELPGYEGRLREAAAGIRRHAAHLQAQSEQLVQAPRRPGEVKVQEGVPWGSLLVGTAQGALTFAGQATVVVFVLYFTLAEGPRFRTKLLAWADRRPRGRARVLAALEELHRDVEQYMLNRVALNAALGVVTWAVYALYGLEHAAIWGITTALLHFIPYVGPALGLFLPAAMALLQYGTAKDVALVTAIYLVLVNVQGNVVDPLFLGKQLRLSPLVVFLGSLFWFWLWGPVGLFLAVPLLSTVRIVCRHLPRYRVVASLLAE” is “failed”.
To “MSAPRLPVTVLTGFLGAGKTTLLSKLLENNKQRRLAILVNEFGEVSIDGGLLRDGENQGVEIHDLANGLVAYDDDADFLPTMLALWQRRQQIDHVLIETSGLALPSAVMAQLQSEALAPYFVLDATLAVVDTPLLLAGHFAPAGDGGKTDAVAALFDQQLGHADIVVLNKIDALSADQLLAAEEAVRKQAPSIRFIELAYEAKLDTRLTLGLHLHEASPAAHRHYGPVASMPGLAMRPLANQTLLDGHSHGGQAAHSHGLATHKHFHEQDPGWQSFMIRSKEPQCADKLAAALQAIAREEPLLRIKGFAACADSPGRLLAQGVRSRIELSRDDTLAAPRQAQLVFIGYHPSRPRVVALLRDITGAHWSLEHHHHHH” belongs “failed”.
